Experiment [1] concerns the target T1, human BDCA2 (human, UniProt Q8WTT0 1-213).
T1 construct: whole, on cells; also called hBDCA2; Blood dendritic cell antigen 2
T1 sequence (looked up): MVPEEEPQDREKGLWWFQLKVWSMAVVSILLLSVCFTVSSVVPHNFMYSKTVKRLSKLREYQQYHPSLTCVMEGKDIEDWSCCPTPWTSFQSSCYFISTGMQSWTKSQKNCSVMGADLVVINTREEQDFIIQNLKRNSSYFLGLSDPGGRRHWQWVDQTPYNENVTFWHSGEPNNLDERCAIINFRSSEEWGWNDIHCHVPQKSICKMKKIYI
The experiment is described as follows: FACS on CHOK1-hBDCA2 cells; EC50 table under the plot, unit from the x axis (nM). Here is the method:
The cells were recovered and resuspended to 2×10⁶/mL with FACS buffer (PBS+2% FBS). The cells were added to 3799 cell plates (Corning) at 100 μL/well, and the supernatant was discarded after centrifugation at 300 g. The antibodies were serially diluted with FACS buffer (Id.), the diluted antibodies were added to centrifuged cells and the cells were resuspended. The cells were incubated at 4° C. for 1 h. The incubated cells were centrifuged at 300 g for 5 min and washed twice with FACS buffer. 100 μL […] anti-Human IgG (H+L) Cross-Adsorbed Secondary Antibody-Alexa Fluor 488 (Sigma, A11013; 1:1000) secondary antibody was added, washed twice with FACS buffer after incubation at 4° C. for 1 h, resuspended with PBS, analyzed with FACS (BD FACS CantoTM II) instrument and curve fitted with GraphPad Prism6, and EC₅₀ values were calculated.

In experiment [2] the target is T1, human BDCA2. The experiment is described as follows: FACS on CHOK1-hBDCA2 cells; EC50 table under the plot, unit from the x axis (nM) [continued) e.]. The method, then:
(§1) The cells were recovered and resuspended to 2×10⁶/mL with FACS buffer (PBS+2% FBS). The cells were added to 3799 cell plates (Corning) at 100 μL/well, and the supernatant was discarded after centrifugation at 300 g. The antibodies were serially diluted with FACS buffer (Id.), the diluted antibodies were added to centrifuged cells and the cells were resuspended. The cells were incubated at 4° C. for 1 h. The incubated cells were then centrifuged at […] for 5 min and washed twice with FACS buffer. 100 μL Donkey anti-Mouse IgG (H+L) Highly Cross-Adsorbed Secondary Antibody-Alexa Fluor 488 (Invitrogen, A21202; 1:1000) secondary antibody was added to the cells, which were washed twice with FACS buffer after incubation at 4° C. for 1 h, resuspended with PBS, analyzed with FACS (BD FACS CantoTM II) instrument. The curve was fitted with GraphPad Prism6, and EC₅₀ values were calculated.

Experiment [3] has as its target T2, cynomolgus BDCA2 (cynomolgus monkey, UniProt A0A2K5UWP4 1-212).
T2 construct: whole, on cells; also called Cyno BDCA2; cynoBDCA2
T2 sequence: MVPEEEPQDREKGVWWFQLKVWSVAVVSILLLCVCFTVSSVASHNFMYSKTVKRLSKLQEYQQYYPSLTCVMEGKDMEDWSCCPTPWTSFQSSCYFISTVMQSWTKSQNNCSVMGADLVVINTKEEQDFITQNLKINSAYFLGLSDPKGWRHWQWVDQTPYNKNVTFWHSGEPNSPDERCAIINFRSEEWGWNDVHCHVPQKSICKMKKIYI
The experiment is described as follows: FACS on 293F-cynoBDCA2 cells; EC50 table under the plot, unit from the x axis (nM) [continued) e.]. The method, then:
as §1

In experiment [4] the target is T3, Human BDCA2 Fc recombinant protein (human).
T3 construct: Human IgG1 Fc N-terminal of the BDCA2 extracellular domain (Asn45-Ile213), fused by a linker; also called BDCA2-Fc protein
The experiment is described as follows: ELISA, coated humanBDCA2 Fc. Here is the method: HumanBDCA2 Fc protein or cynoBDCA2 His protein was diluted with PBS to 1 μg/mL and added to ELISA microplates at 100 μL/well and incubated at 4° C. overnight. The plates were blocked with ELISA blocking solution (PBS phosphate buffer with 1% BSA, pH 7.4, the percentages representing mass percentages) at 37° C. for 2 hours. Sequential 10-fold serial dilutions of antibodies were added at 8 concentrations (0.0001 nM-100 nM, including 0 point control) in total at 100 μL/well. The plates were incubated at 37° C. for 1 hour, then washed 3 times and after anti-mouse IgG (Fab specific)-HRP (Sigma, A3682; 1: 5000 dilution) secondary antibodies were added at 100 μL/well, were incubated at 37° C. for 1 h. The plates were washed 3 times, TMB development fluid (EL0009, Huzhou Ying Chuang Biotechnology) was added at 100 μL/well and 50 μL 1N hydrochloric acid was added after incubation at 37° C. for 10 min to stop the development reaction. OD450 nm values were read with ELISA plate reader and the curve was fitted with GraphPad Prism6, and EC₅₀ values were calculated.
A general note: In an ELISA, binding on a coated surface is turned into a signal by an enzyme label.

Experiment [5] has as its target T4, human FcγRIIA (R167) (human, UniProt P12318 36-218, limits assumed, biotinylated (site not stated)).
T4 construct: also called Fe γ RIIA(R167); Fcγ RIJA (R167)
T4 sequence (looked up): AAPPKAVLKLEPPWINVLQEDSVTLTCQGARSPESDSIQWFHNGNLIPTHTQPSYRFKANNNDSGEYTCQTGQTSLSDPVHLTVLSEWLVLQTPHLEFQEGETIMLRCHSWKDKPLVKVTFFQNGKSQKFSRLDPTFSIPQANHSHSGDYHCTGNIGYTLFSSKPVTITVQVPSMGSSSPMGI
The experiment is described as follows: SPR, FcγRIIA (R167); against the wild-type Fc antibody Hu033-20. Here is the method: (§2) Antibody kinetics or affinity parameters were measured using BIAcore 8K and freshly fixed biotinylated human Fe γ RIIA(R167)/Fc γ RIIA (H167) SA chips. The experiment was run at 25° C. with a running buffer of 1×HBS-EP+(10 mM HEPES pH 7.4, 150 mM NaCl, 3 mM EDTA, 0.05% Surfactant P20). […] The binding and dissociation times of the antibody were 60 and 90 seconds, respectively. Two zero concentration samples are used to remove background signals. The sample was injected in a multi cycle manner, the analyte can be fully dissociated from the chip surface at the end of each cycle, and no regeneration step was applied. Data analysis was perform using Biacore Insight Evaluation Software (Version 2.0.15.12933). After deducting the reference channel (flow cell 1) and two zero concentration signals, affinity analysis was performed using a 1:1 binding model or steady-state model for curve fitting and calculation of kinetic parameters.
In general terms: Surface plasmon resonance follows binding to a sensor surface in real time, without labels.

The target of experiment [6] is T5, human FcγRIIA (H167) (human, UniProt P12318 36-218, limits assumed, biotinylated (site not stated)).
T5 construct: also called Fey RIIA (H167)
T5 sequence (looked up): T4 sequence (looked up) with R132H
The experiment is described as follows: SPR, FcγRIIA (H167); against the wild-type Fc antibody Hu033-20. The method, then:
as §2

For experiment [7], the target named is T4, human FcγRIIA (R167). The experiment is described as follows: SPR (BIAcore 8K), biotinylated FcγRIIA (R167) on SA chip, antibody as analyte, 1:1 binding. Here is the method:
as §2

For experiment [8], the target named is T5, human FcγRIIA (H167). The experiment is described as follows: SPR (BIAcore 8K), biotinylated FcγRIIA (H167) on SA chip, antibody as analyte, 1:1 binding. The method, then:
as §2

Experiment [9] concerns the target T1, human BDCA2. The experiment is described as follows: cell-based or functional assay.

Residue numbers refer to the chain shown, from its start. Some results are limits rather than exact numbers.

Usually EC50 stands for the concentration giving half of the maximal effect. The Kd is the concentration at which binding is half-saturated. High values mean a looser complex, low ones a tighter complex. For orientation: koff means a measure of how fast the partners let go of each other. A high value points to fast dissociation. Usually kon stands for a measure of how fast the partners come together. Low readings indicate slow association, high ones fast association.

B1: mab001c (antibody, V domains shown)
VH: QIQLVQSGPELKKPGETVKISCKASGYTFTDFSMHWVKQAPGKGLKWMGWINTETGEPTYADDFKGRFAFSLETSASTAFLQINNLKNDDTTTYFCSRGGDGHPYWYFAVWGAGTTVTVSS
VL: DIVLTQSPASLAVSLGQRATISCRASQSVSTSSYSYMHWYQQKPGQPPKLLIKYASILESGVPARFSGSGSGTDFTLNIHPVEEEDTATYYCQHSWEIPFTFGSGTKLEIK
B1 had an EC50 in [1] of 1.9 nM.

B2: mAb034 (antibody, V domains shown)
VH: DVQLQESGPGLVKPSQSLSLTCSVTGYSITSGYYWNWIRQFPGNKLECMGYITYDGSNNYNPSLKDRISITRDTSKNQFFLKLNSVTTEDTATYYCARGGDYDDGGFAYWGHGTLVTVSA
VL: DIQMTQSPVSLSASVGETVTITCRASGNIHNYLAWYQQKQGKSPQLLVYNAKSLVDGVPSRFSGSGSGTQYSLKINSLQPEDFGSYYCQHFWIIPYTFGGGTKLEIK
notes: Mouse hybridoma antibody
Take B2: the values for the EC50 in [2], in experiment [3] and in experiment [4] were 0.705 nM, 1.96 nM and less than 0.3 nM, respectively.

B3: Hu033-20-T3 (antibody, human IgG1, kappa)
heavy: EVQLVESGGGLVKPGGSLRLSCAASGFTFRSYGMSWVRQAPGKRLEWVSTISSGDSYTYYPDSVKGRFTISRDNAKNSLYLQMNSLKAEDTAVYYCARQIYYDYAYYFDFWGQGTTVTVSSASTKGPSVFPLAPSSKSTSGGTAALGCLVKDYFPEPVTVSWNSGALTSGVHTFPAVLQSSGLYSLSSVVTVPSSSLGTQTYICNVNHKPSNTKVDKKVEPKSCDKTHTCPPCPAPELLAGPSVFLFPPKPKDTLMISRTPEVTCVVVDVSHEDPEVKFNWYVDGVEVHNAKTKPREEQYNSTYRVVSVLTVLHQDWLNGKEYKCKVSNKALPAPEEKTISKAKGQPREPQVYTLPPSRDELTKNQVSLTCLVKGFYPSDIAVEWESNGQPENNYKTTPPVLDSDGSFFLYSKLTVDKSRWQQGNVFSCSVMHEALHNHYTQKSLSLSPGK
light: DIVMTQSPDSLAVSLGERATINCRASESVSFRTSHLMHWYQQKPGQPPKLLIYGASNLESGVPDRFSGSGSGTDFTLTISSLQAEDVAVYYCQQSIEDPPTFGGGTKVEIKRTVAAPSVFIFPPSDEQLKSGTASVVCLLNNFYPREAKVQWKVDNALQSGNSQESVTEQDSKDSTYSLSSTLTLSKADYEKHKVYACEVTHQGLSSPVTKSFNRGEC
notes: Fc-mutated Hu033-20 (IgG1)
Take B3: the Multiple of affinity in [5] was 6.3 fold. In [6], the Multiple of affinity was 8.7 fold. In [7], binding was put at a Kd of 279 nM, the koff is 0.191 s⁻¹ and the kon amounted to 683000 M⁻¹ s⁻¹. In experiment [8], this molecule displayed a dissociation constant (Kd) of 154 nM, a koff of 0.087 s⁻¹ and a kon of 563000 M⁻¹ s⁻¹.

B4: mAb033 (antibody, V domains shown)
VH: EVQMVESGGDLVKPGDSLKLSCAASGFTFRSYGMSWVRQTPDKRLEWVATISSGDSYTYYPDSVKGRFTISRDNAKNTLYLQMSSLKSEDTALYYCARQIYYDYAYYFDFWGQGTTLTVSS
VL: DIVLTQSPASLAVSLGQRATISCRASESVSFRTSHLMHWYQQKPGQPPKLLIYGASNLESGVPARFSGSGSETDFTLNIHPVEEEDAAAYFCQQSIEDPPTFGGGTKLEIK
notes: Mouse hybridoma antibody
As for B4, the values for the EC50 in [2] and in experiment [3] were 0.388 nM and 1.18 nM, respectively. The “IC50 for inhibiting cytokine IFNα release, CpG-A stimulated human PBMC” value in [9] was determined as 0.00408 nM.

These data come from patent publication US20250346673A1 (DUALITY BIOLOGICS SUZHOU, published 2025).
